Usually Kd stands for the free concentration of one partner at which half of the binding sites on the other are occupied at equilibrium, for simple one-to-one binding.

Assay [1] concerns the target T1, rHuman Notch-1/Fc Chimera, CF (R&D Systems Cat#3647-TK) (human, UniProt P46531 19-526).
T1 construct: Bought Fc chimera; Fc part of the bought chimera not given
Briefly: MSD ECL multi-spot, Fab 0.74 uM, blank 692.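 Further: blank spot per well as comparator with Hit at signal to blank ratio of 4 or more.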

Assay [2] has as its target T2, rHuman CD44/Fc Chimera, CF (R&D Systems Cat#3660-CD) (human, UniProt P16070 21-220).
T2 construct: Bought Fc chimera; Fc part of the bought chimera not given
Briefly: MSD ECL multi-spot, Fab 0.74 uM, blank 692.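 Further: blank spot per well as comparator with Hit at signal to blank ratio of 4 or more.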

The target of assay [3] is T3, rHuman IGF-1 sR (insulin-like growth factor-1 soluble receptor), CF (R&D Systems Cat#391-GR) (human, UniProt P08069 31-932).
T3 construct: Bought soluble receptor; also called IGF-R1
Briefly: MSD ECL multi-spot, Fab 0.74 uM, blank 692.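 Further: blank spot per well as comparator with Hit at signal to blank ratio of 4 or more.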

Assay [4] addresses T4, rHuman P-Cadherin/Fc Chimera, CF (R&D Systems Cat#861-PC) (human, UniProt P22223 108-654).
T4 construct: Bought Fc chimera; Fc part of the bought chimera not given
Briefly: MSD ECL multi-spot, Fab 0.74 uM, blank 692.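 Further: blank spot per well as comparator with Hit at signal to blank ratio of 4 or more.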

Assay [5] concerns the target T5, rHuman Erythropoietin R/Fc Chimera, CF (R&D Systems Cat#963-ER) (human, UniProt P19235 25-250).
T5 construct: Bought Fc chimera; also called EPO R/Fc; EPOR; Fc part of the bought chimera not given
T5 sequence: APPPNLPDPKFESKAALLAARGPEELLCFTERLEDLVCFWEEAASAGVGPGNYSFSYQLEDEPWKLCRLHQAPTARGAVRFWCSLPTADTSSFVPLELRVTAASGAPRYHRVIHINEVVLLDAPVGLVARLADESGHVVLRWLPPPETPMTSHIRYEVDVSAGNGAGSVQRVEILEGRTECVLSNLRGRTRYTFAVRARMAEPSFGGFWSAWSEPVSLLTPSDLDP
Briefly: MSD ECL multi-spot, Fab 0.74 uM, blank 692.

In assay [6] the target is T6, Recombinant Human DLL4 (R&D Systems Cat#1506-D4/CF) (human, UniProt Q9NR61 27-524).
T6 construct: Bought recombinant protein; also called rHuman DLL4; delta-like protein 4
Briefly: MSD ECL multi-spot, Fab 0.74 uM, blank 692.

For assay [7], the target named is T7, rHuman ErbB2/Fc Chimera, CF (R&D Systems Cat#1129-ER) (human, UniProt P04626 23-652).
T7 construct: Bought Fc chimera; also called HER2/neu; Fc part of the bought chimera not given
Briefly: MSD ECL multi-spot, Fab 0.74 uM, blank 692.

In assay [8] the target is T8, rHuman EGF R/Fc Chimera, CF (R&D Systems Cat#344-ER) (human, UniProt P00533 25-645).
T8 construct: Bought Fc chimera; Fc part of the bought chimera not given
Briefly: MSD ECL multi-spot, Fab 0.74 uM, blank 692.

Assay [9] concerns the target T9, rHuman HGF R/c-MET/Fc Chimera, CF (R&D Systems Cat#358-MT/CF) (human, UniProt P08581 25-932).
T9 construct: Bought Fc chimera; also called HGF R/Fc; Fc part of the bought chimera not given
Briefly: MSD ECL multi-spot, Fab 0.74 uM, blank 692.

For assay [10], the target named is T10, rHuman Erythropoietin R/Fc Chimera, CF (R&D Systems, Cat#963-ER) (human, UniProt P19235 25-250).
T10 construct: Bought chimera; also called EPO R/Fc; Epo R; Fc part of the bought chimera not given
T10 sequence: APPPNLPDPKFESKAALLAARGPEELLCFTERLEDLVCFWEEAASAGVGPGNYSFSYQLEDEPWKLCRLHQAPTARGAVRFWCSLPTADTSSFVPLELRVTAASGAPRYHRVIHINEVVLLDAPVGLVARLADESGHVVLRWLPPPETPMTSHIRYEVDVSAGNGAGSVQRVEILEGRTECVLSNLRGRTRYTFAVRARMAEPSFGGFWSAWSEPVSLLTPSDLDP
Briefly: ECL (MSD) Fab titration; binding affinity estimated from the 50% binding signal.

Assay [11] addresses T11, rHuman Erythropoietin R/Fc Chimera, CF (R&D Systems Cat#963-ER) (human, UniProt P19235 25-250).
T11 construct: Bought Fc chimera; also called EPO R/Fc; Epo R; Fc part of the bought chimera not given
T11 sequence: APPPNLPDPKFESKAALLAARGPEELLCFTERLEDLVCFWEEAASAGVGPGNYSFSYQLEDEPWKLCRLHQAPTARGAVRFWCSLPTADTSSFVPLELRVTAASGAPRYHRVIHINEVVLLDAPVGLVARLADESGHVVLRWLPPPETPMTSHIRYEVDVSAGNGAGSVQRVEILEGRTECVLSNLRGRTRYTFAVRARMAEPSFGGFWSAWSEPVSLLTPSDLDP
Briefly: ECL (MSD multi-spot), Fab 14.5 nM; blank 117.

In assay [12] the target is T12, Recombinant Human DLL4 (R&D Systems Cat#1506-D4/CF) (human, UniProt Q9NR61 27-524).
T12 construct: Bought recombinant protein; also called delta-like protein 4
Briefly: ECL (MSD multi-spot), Fab 14.5 nM; blank 117.

Assay [13] concerns the target T13, rHuman ErbB2/Fc Chimera, CF (R&D Systems Cat#1129-ER) (human, UniProt P04626 23-652).
T13 construct: Bought Fc chimera; also called human epidermal growth factor 2 receptor; HER2/neu; Fc part of the bought chimera not given
Briefly: ECL (MSD multi-spot), Fab 14.5 nM; blank 117.

Assay [14] deals with T14, rHuman Notch-1/Fc Chimera, CF (R&D Systems Cat#3647-TK) (human, UniProt P46531 19-526).
T14 construct: Bought Fc chimera; Fc part of the bought chimera not given
Briefly: ECL (MSD multi-spot), Fab 14.5 nM; blank 117.

Assay [15] concerns the target T15, rHuman CD44/Fc Chimera, CF (R&D Systems Cat#3660-CD) (human, UniProt P16070 21-220).
T15 construct: Bought Fc chimera; Fc part of the bought chimera not given
Briefly: ECL (MSD multi-spot), Fab 14.5 nM; blank 117.

In assay [16] the target is T11, rHuman Erythropoietin R/Fc Chimera, CF …. Briefly: ECL (MSD multi-spot), Fab 58.1 nM; blank 225.
In assay [17] the target is T12, Recombinant Human DLL4 (R&D Systems …). Briefly: ECL (MSD multi-spot), Fab 58.1 nM; blank 225.
For assay [18], the target named is T13, rHuman ErbB2/Fc Chimera, CF (R&D …). Briefly: ECL (MSD multi-spot), Fab 58.1 nM; blank 225.
For assay [19], the target named is T14, rHuman Notch-1/Fc Chimera, CF (R&D …). Briefly: ECL (MSD multi-spot), Fab 58.1 nM; blank 225.
Assay [20] has as its target T15, rHuman CD44/Fc Chimera, CF (R&D Systems …). Briefly: ECL (MSD multi-spot), Fab 58.1 nM; blank 225.
Assay [21] concerns the target T11, rHuman Erythropoietin R/Fc Chimera, CF …. Briefly: ECL (MSD multi-spot), Fab 930 nM; blank 1206.
Assay [22] addresses T12, Recombinant Human DLL4 (R&D Systems …). Briefly: ECL (MSD multi-spot), Fab 930 nM; blank 1206.
The target in assay [23] is T13, rHuman ErbB2/Fc Chimera, CF (R&D …). Briefly: ECL (MSD multi-spot), Fab 930 nM; blank 1206.
For assay [24], the target named is T14, rHuman Notch-1/Fc Chimera, CF (R&D …). Briefly: ECL (MSD multi-spot), Fab 930 nM; blank 1206.
In assay [25] the target is T15, rHuman CD44/Fc Chimera, CF (R&D Systems …). Briefly: ECL (MSD multi-spot), Fab 930 nM; blank 1206.
Assay [26] has as its target T11, rHuman Erythropoietin R/Fc Chimera, CF …. Briefly: ECL (MSD multi-spot), Fab 232.5 nM; blank 460.
The target of assay [27] is T12, Recombinant Human DLL4 (R&D Systems …). Briefly: ECL (MSD multi-spot), Fab 232.5 nM; blank 460.
The target of assay [28] is T13, rHuman ErbB2/Fc Chimera, CF (R&D …). Briefly: ECL (MSD multi-spot), Fab 232.5 nM; blank 460.
Assay [29] deals with T14, rHuman Notch-1/Fc Chimera, CF (R&D …). Briefly: ECL (MSD multi-spot), Fab 232.5 nM; blank 460.
In assay [30] the target is T15, rHuman CD44/Fc Chimera, CF (R&D Systems …). Briefly: ECL (MSD multi-spot), Fab 232.5 nM; blank 460.
Assay [31] has as its target T1, rHuman Notch-1/Fc Chimera, CF (R&D …). Briefly: MSD ECL multi-spot, Fab 0.43 uM, blank 879.
In assay [32] the target is T3, rHuman IGF-1 sR (insulin-like growth …). Briefly: MSD ECL multi-spot, Fab 0.43 uM, blank 879.
The target in assay [33] is T6, Recombinant Human DLL4 (R&D Systems …). Briefly: MSD ECL multi-spot, Fab 0.43 uM, blank 879.

B1: Fab VH1-46_IGHD3-10*01_IGHJ4*01 & B3_IGKJ1*01 (Fab, V domains shown)
VH: QVQLVQSGAEVKKPGASVKVSCKASGYTFTSYYMHWVRQAPGQGLEWMGIINPSGGSTSYAQKFQGRVTMTRDTSTSTVYMELSSLRSEDTAVYYCAREYYYGSGSYYNDYFDYWGQGTLVTVSS
VL: not shown
notes: Expressed in E. coli as Fab: heavy chain with CH1 plus Flag and His tags from Plasmid A, kappa light chain constant region from Plasmid C; also called Fab No. 5
For B1, the ECL signal in assay [1] came out at 980; in [2], 682; in [3] it was 593; in [4], 1160; in assay [5] it was 4110; in assay [6] it was 1000. Also, the ECL signal in assay [7] was 562; in assay [8], 652; in assay [9] it was 633.

B2: Fab VH1-46_IGHD3-10*01_IGHJ4*01 & B3_IGKJ1*01 (Fab, V domains shown)
VH: QVQLVQSGAEVKKPGASVKVSCKASGYTFTSYYMHWVRQAPGQGLEWMGIINPSGGSTSYAQKFQGRVTMTRDTSTSTVYMELSSLRSEDTAVYYCAREYYYGSGSYYNDYFDYWGQGTLVTVSS
VL: not shown
notes: Fab from E. coli; VH joined to CH1 with Flag and His tags (Plasmid A), VL to kappa CL (Plasmid C)
B2: the Kd in [10] was around 100 nM.

B3: Fab VH1-46_IGHD6-13*01_IGHJ4*01 & O1_IGKJ1*01 (Fab, V domains shown)
VH: QVQLVQSGAEVKKPGASVKVSCKASGYTFTSYYMHWVRQAPGQGLEWMGIINPSGGSTSYAQKFQGRVTMTRDTSTSTVYMELSSLRSEDTAVYYCAREGYSSSWYDYFDYWGQGTLVTVSS
VL: DIVMTQTPLSLPVTPGEPASISCRSSQSLLDSDDGNTYLDWYLQKPGQSPQLLIYTLSYRASGVPDRFSGSGSGTDFTLKISRVEAEDVGVYYCMQRIEFPSWTFGQGTKVEIK
notes: Tested as a Fab expressed in E. coli: heavy chain with CH1 plus Flag and His tags from Plasmid A, kappa constant region from Plasmid C
With B3, the ECL signal in assay [11] came to 660 ECL signal; in [12], 1150 ECL signal; in assay [13], 274 ECL signal; in assay [14], 317 ECL signal; in assay [15], 212 ECL signal; in [16], 829 ECL signal. The ECL signal worked out at 1880 ECL signal in assay [17]; 322 ECL signal in [18]; 388 ECL signal in assay [19]; 375 ECL signal in assay [20]; 3010 ECL signal in assay [21]; 8160 ECL signal in assay [22]. Moreover, the ECL signal came to 2220 ECL signal in assay [23]; 2210 ECL signal in [24]; 1920 ECL signal in [25]; 1470 ECL signal in assay [26]; 3590 ECL signal in [27]; 779 ECL signal in assay [28]. Also, the values for the ECL signal in assay [29] and in assay [30] were 778 ECL signal and 607 ECL signal, respectively.

B4: Fab VH1-46_IGHD6-13*01_IGHJ4*01 & B3_IGKJ1*01 (Fab, V domains shown)
VH: QVQLVQSGAEVKKPGASVKVSCKASGYTFTSYYMHWVRQAPGQGLEWMGIINPSGGSTSYAQKFQGRVTMTRDTSTSTVYMELSSLRSEDTAVYYCAREGYSSSWYDYFDYWGQGTLVTVSS
VL: not shown
notes: Expressed in E. coli as Fab: heavy chain with CH1 plus Flag and His tags from Plasmid A, kappa light chain constant region from Plasmid C; also called Fab No. 6
With B4, the ECL signal in assay [31] worked out at 1790; in assay [32] it was 1140; in assay [33] it was 2540.

The values above are taken from patent US20120058906A1 (published 2012).
